Data reported in the nanobody polyreactivity screen of Harvey et al. (2022).

Assay: yeast display, Sf9 membrane polyspecificity reagent, FACS + sequencing; frameworks hold sequencing errors
Outline: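 Nanobodies from a synthetic yeast display library (Saccharomyces cerevisiae BJ5465), induced 36–48 hours with galactose, were stained 1 hour at 4 °C with 10% biotinylated, detergent-solubilized Sf9 membrane reagent, enriched on streptavidin microbeads, then FACS-sorted. Anti-HA (expression) and streptavidin (reagent binding) fluorescence set low and high (top ~1%) gates. Polyreactivity labels come from the gate of origin. Genes were colony-PCR amplified, MiSeq 2 × 250 sequenced and filtered by CDR length.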

Sequence	polyreactivity (PSR sort gate)
QVQLVESGGGLVQAGGSLRLSCAASGITFRRYVMGWYRQAPGKERELVARISSDGSTSYADSVKGRFTISRNNAKNTVYLQMNSLKPEDTAVYYCAAVHQWYVRYSTGYNYWGQGTQVTVSS	high polyreactivity
QVQLVESGGGLVQAGGSLRLSCAASGRTFGTYAMGWSRQAPGKERELVASITWSGTSTYYADSVKGRFTISRDNAKNTVYLQMNSLKPEDTAVYYCAAGWGYYRYYYWGQGTQVTVSS	high polyreactivity
QVQLVESGGGLVQAGGSLRLSCAASGSIFISYAMGWYRQAPGKERELVAAISSGGSTNYADSVKGRFTISRDNAKNTVYLQMNSLKPEATAVYYCAADGWLWSFTGDGWWFDYWGQGTQVTVSS	low polyreactivity
QVQLVESGGGLVQAGGSLRLSCAASGNIFPDYAMGWYRQAPGKERELVAAISTSGSSTYYADSVKGRFTISRDNAKNNDYLQMNSLKPEDTAVYYCNAYRNADYVYWGQGTQVTVSS	low polyreactivity
QVQLVESGGGLVQAGGSLRLSCAASGNTFYPKDMGWYRQAPGKERELVAAITTNDGDTYYADSVKGRFTISRDNAKNTVYLQMNRLKPEDTAVYYCAADSGSTSEYEYWGQGTQVTVSS	low polyreactivity
QVQLVESGGGLVQAGGSHRLSCAASGRIYGDYAMGWYRQAPGKERELVAAINSSGTSTIYADSVKGRFTISRDNAKNTVYLQLNCLKPEDTAVYYCADLFTFKYDYWGQGTQVTVSS	low polyreactivity
QVQLVESGGGLVQAGGSLRLSCAASGLTFRQYAMGWYRQAPGKERELVAAITNGGRTYYADSVKGRFTISRDNAKNTVYLQMNSLKPEDTAVYYCAAYVPTFKDRSRWYGRKYDYWGQGTQVTVSS	low polyreactivity
QVQLVESGGGLVQAGGSLRLSSAASGSTFFTNALGWYRPAPGKERELGAVITKRGGSTYYADSVKGRFTISRDNAKNPVYLQMNSLKPEDTAVYYCAARIPKQQGYGYWGQGTQVTVSS	high polyreactivity
QVQLVESGGGLVQAGGSLRLICAASGSIFVLNAMGWYRQAPGKERELVAAITSGGSTYYADSVKGRFTISRDNAKNTVYLQMISLKPEDTAVYYCNALDLSPSYKYDYWGQGTQVTVSS	low polyreactivity
QVQLVESGGGLVQAGGSLRLSCAASGFIFTGYAMGWYRQAPGKERELVAAITKSGGSTYYADSVKGRFTISRDNAKNTVYLQMNSLKPEDTAVYYFNTYLWRWSKGGYLGQGTQVTVSS	high polyreactivity
QVQLVESGGGLVQAGGSLRLSCAASGSIFRAYTMGWYRQAPGKERELVAAINWSGGSTYYADSVKGRFTISRDNAKNTVYLQMNSLKPEDTAVYYCAKRWASWRYDYWGQGTQVTVSS	high polyreactivity
QVQLVESGGGVVQAGGSLRLSCAASGSTFHYYAMGWYRQAHGKERELVAAISYSSGSTYYADSVKGRVTISRDNAKNHVYLQMISLKPEDTAVYYCATESYSYYIHTTYYYWGQGTQVTLSS	low polyreactivity
QVQLVESGGGLVQAGGSLRLSSAASGITFERNGMGWYRQAPGKERELVAAIRSGGSTYYADSVKGRFTISRDNAKITVYLQMNSQKPEDTAVYYCAAVTQGGYTYLGDYWGQGTQVTVSS	low polyreactivity
QVQLVESGGGLVQAGGSLRIRCAATGFIFLDYAMGWYRQAPGKERELVAAISSRGARTYYADSVKGRFTISRDNAKNTVYLQMNSLKPEDTAVYYCAARGPLDRYGYWGQGTQVTVSS	high polyreactivity
QVQLVESGGGLVKAGGSLRLSCASSGSTFVGNAMGWYRQAPGKERELVAAISVNDGTTYYADSVKGRFTISRDNAKNTVYLQMNSLKPEDTAVDYCNVKRYGCRSDYWGQGTQVTVSS	high polyreactivity
QVQLVESGGGLVQAGGSLRLSCAAYGYTFRGYAMGRYRQAPGKEREFVAAINWSDGSTYYADSVKGRFTISRDNAKNTVYLQMNSLKPEDTAVYYCNADQYYRFPDNYLGQGTQVTVSS	low polyreactivity
QVQLVESGGGLVQAGGSLRLTCAASGFTFAGYAMGWYRQGPGKERELVAVITSSDSTYYADSVKGRFTISRDNAKNTVYLQMNSLKPEDTAVYYCNAADERSQGWVGYDHWGQCTQVTVSS	low polyreactivity
QVQLVESGGGLVQAGGSLRLSCAASGRIFWFNAMGWYRQAPGKERELVAAISGGSTNYADSVKGRFTISRDNAKNTVYLQMNSLKPEDTAVYYCAARYLRRYNWGQGTQVTVSS	high polyreactivity
QVHLVESGGGLVQAGGSLRLSCAASGSIFRSYAMGWYRQAPGKERELVAGISWSGGSTYYADSVKGRFTISRDNAKNTVYLQMNSLKPEDTPVYYCDADIKIRLYTTGDYWGQGTQVTVSS	low polyreactivity
QVQLVESGGGLVQAGGSLRLSCAASGSTFRPNAMGWYRQAPGKERELVAGISLNGTSTYYADSVKGRFTISRDNAKNTVYLQMNSLKPEDTAVYYCAADYQCGRGAEPYVFFDPEMDYWGQGTQVTVSS	low polyreactivity
QVQLVESGAGLVQAGGSLRLSCAATGLTFDYNAMGWYRKAPGKERELVAAITWSGGSTYYADSVKGRFTISRDNAKNTVYLQMNSLKTEDTAVYYCATESYGLDYYDEYNYWGQGTQVTVSS	low polyreactivity
QVQLVESGGGLVQAGGSLRLSCAASGSIFYLNAMGWYRQAPGKERELVAAINSGGTTNYADSVKGRFTISRDNAKNTVYLQMNSLKPEDTAVYYCATDGYYYYYRVYKFDYWGQGTQVTVSS	low polyreactivity

Sequence	polyreactivity (PSR sort gate)
QVQLVESGGGLVQAGGSLRLSCAASGRILKYYDMGWYRQAPGKETELVAAISVSGTSTYYADSVKGRFTISRDNAKNTVYLQMNSLKPEDTAVYYCATATGRYSFDYWGKGTQVTVSS	low polyreactivity
IIQAGGSLRLSCAASGSTLIGYTMGWYRQAPGKERELVAAITWGAGSTNYADSVKGRFTISRDNAKNTVYLQMNSLKPEDTAVYYCNADSTSDPRYLGEYDYWGQGTQVTVSS	low polyreactivity
QVQLVESGGGLVQAGGSLRLSCAASGLTFVDNAMGWYRQAPGKERELVAAISFRDGSTYYADSVKGRFTISRDNAKNTVYLQMNSLKPEDTAVYYCAAVGQTHPTSPLSTKYDYWGQGTQVTVSS	low polyreactivity
QVQLVESGGGLVQAGGSLRLSCAASGITFASNTMGWYRQAPGKERELVAAITRGDNTYYADSVKGRFTISRDNAKNTVYLQMNSLKPEDTSVYYCATEGYQIQYEHDYWGQGTQVTVSS	low polyreactivity
QVQLVESVGGLVQAGGTLRLSCSASGSTFNVYAMGWYIQATGKERELVAAITRRGGSTYYADSVKGRFTISRDNAKNTVYLQMNSLKPEDTADYYFAARRRLDYYYYNYWGQGTQETVSS	high polyreactivity
QVHLVDSGGGLVQAGGSLRLSSADSGSTFAANAIGWYRQAPGKERELVAAITSSGGSTYYADSVKGRFTISRDNATNTVYLQKNSLKPEDTAVYYCNKDMERYVRIYDSWGQGSQVTVSS	low polyreactivity
QVQLRESGAGGRQPAPELLGERQYFYWSADGLVSQAPGKEREFVAGIDRGTITNYADSVRGRFTISRDNAKNTVFRQMNSLKPEDTAVYYCAVPAYGDPRSYYWGQGTHVTVSS	high polyreactivity
QVQLVESGGGLVQAGGSLRLSCAASGSTFWGNAMGWYRQAPGKERELVAAIDWSGGRTYYADSVKGRFTISRDNAKNTVYLQMNSLKPEDTAVYYCATRAWRGYVPYDYWGQGTQVTVSS	high polyreactivity
QVQLVESGGGLVQAGGSLRLSCAASGIIPSYAMGWYRQAPGKERELVAGISRSGGSTYYADSVKGRFTISRDNAKNTVYLQMNSLKPEDTAVYYCAARVKVRDFKGYYWGQGTQVTVSS	high polyreactivity
QVQLVESGGGLVQAGGSLRLSCAASGRIFRPYAMGWYRQAPGKERELVASMSWRGSSTYYADSVKGRFTISRDNAQNTVYLQMNSLKPEDTAVYYCAARRYPTSGYGYWGQGTQVTVSS	high polyreactivity
QVQLVESVGGLVQAGGSLRLRCAASGRTFGVYAMGWYRQAAGKESEFVATITSRGGRTYSADSVKGRFTISRDNAKKTVYLQMNSLIPEDTAVYYCAAQVGRNGVSEYDYWGQGTQVTVSS	high polyreactivity
QVQLVESGGSLVQAGGSLRLSCDASVLTFPVYAMGWYRQAPGKEREFVASISGRGASTYYADSVKGRFTISRDNAKNTVYLQMNSLIPEDTAVYYCNADVWLLSYFPEYDYWGQGNQVTVSS	low polyreactivity
QVQLVESGGGLVQAGGSLRLSCAASGRIFSEYAMGGDRQAPGKERELVATITSGDSTIYADSVKGRFTISRDNAKNTVYVQMNSLKPDDTAVYYCNPDRFADYDYWGHGTQVTVSS	low polyreactivity
QDQLVESGGGLVQAGGSLRLSCAASGSIFQSYAMGWYRQAPGKERELVAANDRSGTSTYYADSVKGRFTISRDNAKNTVYLQLNSLKPEDTAVYYCAAVSSRGRFGYTVQIEYDYWGQGTQVTVSS	low polyreactivity
QVQLLESGGGLVQAGGSLRLSCAASGFNFGGYVMGWYRQAPGKESELVAAISSSGGITHYADSLKGRFTISRDNAKNTVSLQMNRLKPEDTAVYYCNALYRQRYYWGQGTQVTVSS	high polyreactivity
QVQLVESGGGLVQAGGSLRLSCAAYGNIFYVYVMGWYRQAPGKERELVASITSGASTYYADSVKGRFTISRDNAKNTVYLQMNSLKPEDTAVYYCAAEALGGAGDYSTLYIYDYWGQGTQVTVSS	low polyreactivity
QVQLVESGGGLVQAGGSLRLSCAASGRIFFRYAMGWYRQAPGKEREFVAAISGTGGSTYYADSVKGRFTISRDNAKNTVYLQMNSLKPEDTAVYYCAASVVSRPTYYAYYYWGQGTQVTVSS	high polyreactivity
QVQLVESGGGLVQAGGSVSLSCAASGTFSPYAMGWYRQAPGKERELVADITSNTGRTYADSVKGRFTISRDNAKNTVYLKMNSLKPEDTSVYYCNTYGSGTHSSGYDYWGQGTQVTVSS	low polyreactivity
QVHLVESGAGLVQAGGSLSLSCAASVFTLHVYALGWYRQAPGKERELVAALSTGGNTNYADSVKGRFTISRDNAKNTVYLQMHSLKPEDTAVYYCAASNRGATRRQVNYWGQGTQVTVSS	high polyreactivity
QVQLVESGGGLVQAGGSLRLSCAASGSIFWLYAMGWYRQAPGKERELVAAITWSGGRTYYADSVKGRFTISRDNAKNTVYLQMNSLKPEDTAVYYCARRQWPWYSNPARGGKYDYWGQGTQVTVSS	low polyreactivity
QVQLVESGGGLVQAGGSLRLSCAASGSIFVGNVMGWYRQAPGKERELVAAIRFSGGNTYYADSVKGRFTISRDNAKNTVYLQMNSLKPEDTAVYYCAARYGQGSYPTKYYYWGQGTQVTVSS	high polyreactivity
